Here are results for 64 molecules from patent US20170298096A1 (CANIMGUIDE THERAPEUTICS, published 2017).

T1: His-tagged P3028 (human, also: His-tag, terminus and sequence not given here)
T1 construct: in solution at 0.5 ug/mL over the peptide cards; found with anti-His-tag antibody and rabbit anti-mouse peroxidase (rampo); also called PGE73; not shown: His-tag
T1 peptide: VFDEFKPLVEEPQNLIK

T2: His-tagged P3028 (human, not fully specified)
T2 construct: the tag is put first after 'PGE73=His-tag-P3028'; also called PGE73; not shown: His-tag
T2 peptide: {His‑tag}-VFDEFKPLVEEPQNLIK

No end group written: not given here.

The target of one assay is T1, His-tagged P3028. Briefly: PEPSCAN chip ELISA, His-P3028 in solution.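 Also: score is the raw OD at 405 nm from peroxidase colour with ABTS, imaged by CCD camera before and after staining, with wells showing air bubbles set to zero.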
Method: After washing, the peroxidase substrate 2,2′-azine-di-3-ethylbenzthiazoline sulfonate (ABTS) and 2 μL of 3% H2O2 were added. The binding capacity of the mAb was measured as a color development at 405 nm (optical density, OD405). The color development was quantified with a charge-coupled device (CCD)—camera and an image processing system.
The OD405-values obtained by a CCD-camera was considered as raw data values (“rampo values,” “rampo units,” or “rampo scores”). […] First the CCD-camera made a picture of the card before peroxidase coloring and then again a picture after the peroxidase coloring. […] These values were copied into an excel file and labeled as a raw data file. One follow-up manipulation was allowed. Sometimes a well can contain an air-bubble resulting in a false-positive value. If manual inspection of the cards detect an air-bubble the value are set to 0 for that well.
As to KKLDTFFVKLSLFKER [SEQ ID NO 517], the “RAMPO Score” value came out at 259 rampo score. In the case of KKLDTFFVWLSLFTER [SEQ ID NO 526], the “RAMPO Score” value was 245 rampo score. On the same count and under the same terms, the value for KKLDTFFVNLSLFTER [SEQ ID NO 518] was 256 rampo score; that for KKLDTFFVKLSLFTEH [SEQ ID NO 528] was 239 rampo score; that for KKLDTFFVKLSLFTLR [SEQ ID NO 525] was 246 rampo score. On to KKLDTFFVKLSLFCER [SEQ ID NO 520], for which the “RAMPO Score” value was 254 rampo score. For KKLDTFFVKLFLFTER [SEQ ID NO 522], the “RAMPO Score” value is 250 rampo score. Still for that read-out and setting: the value for KKLDKFFVKLSLFTER [SEQ ID NO 530] was 237 rampo score; that for KKLDTFFVKLELFTER [SEQ ID NO 532] was 234 rampo score; that for KKLDTFFVVLSLFTER [SEQ ID NO 523] was 248 rampo score. Consider KKLDTFFVKLSLFTRR [SEQ ID NO 531], for which the “RAMPO Score” value stood at 237 rampo score. The same measure, in the same setting: the value for KKLDTFFVELSLFTER [SEQ ID NO 527] was 240 rampo score; that for KKLDTFFVKLSLFTEV [SEQ ID NO 521] was 254 rampo score.

Regarding KKLDTFFCKLSLFTER [SEQ ID NO 519], the “RAMPO Score” value was 254 rampo score. As for KKLDTFFVKLSLFTEM [SEQ ID NO 529], the “RAMPO Score” value worked out at 238 rampo score. Consider KKLDTFFVKLSLFTMR [SEQ ID NO 524], for which the “RAMPO Score” value was 247 rampo score.

A further assay concerns the target T2, His-tagged P3028. In words: chip ELISA.
Consider KKLATFFVKLSLFTER [P28R D4A], for which the ELISA signal turned out to be 494.

In turn, KKLDTFFVKLSLFTSR [P28R E15S] displayed an ELISA signal of 165.

Turning to KKLDTFFVKLSLFTVR [P28R E15V], the ELISA signal amounted to 163.

As for KKLETFFVKLSLFTER [P28R D4E], the ELISA signal turned out to be 417.

KKLDTFFVKLSLFTKR [P28R E15K] yielded an ELISA signal of 324. Take KKLDTEFVKLSLFTER [P28R F6E]: the ELISA signal was 229. The molecule KKLDTMFVKLSLFTER [P28R F6M] gave an ELISA signal of 467. On the same count and under the same terms, next, KKLTTFFVKLSLFTER [P28R D4T]: 405; KKLDTFFVKLSLFTAR [P28R E15A]: 174; KKLDTYFVKLSLFTER [P28R F6Y]: 364. Molecule KKLLTFFVKLSLFTER [P28R D4L] came in with an ELISA signal of 303. On to KKLVTFFVKLSLFTER [P28R D4V], for which the ELISA signal is 424. KKLDTSFVKLSLFTER [P28R F6S] registered an ELISA signal of 432. KKLNTFFVKLSLFTER [P28R D4N] came in with an ELISA signal of 296. In turn, KKLDTIFVKLSLFTER [P28R F6I] displayed an ELISA signal of 466. KKLDTFFVKLSLFTYR [P28R E15Y]: the ELISA signal was determined as 340. On the same count and under the same terms, the value for KKLDTHFVKLSLFTER [P28R F6H] was 332; that for KKLDTFFVKLSLFTQR [P28R E15Q] was 344; that for KKLDTFFVKLSLFTDR [P28R E15D] was 404. With KKLSTFFVKLSLFTER [P28R D4S], the ELISA signal worked out at 344.

As for KKLDTLFVKLSLFTER [P28R F6L], the ELISA signal was found to be 408.

As for KKLDTFFVKLSLFTHR [P28R E15H], the ELISA signal was determined as 318.

With KKLDTTFVKLSLFTER [P28R F6T], the ELISA signal was determined as 481. Molecule KKLHTFFVKLSLFTER [P28R D4H] yielded an ELISA signal of 317. With KKLWTFFVKLSLFTER [P28R D4W], the ELISA signal was 443. For the molecule KKLMTFFVKLSLFTER [P28R D4M], the ELISA signal came to 384.

KKLDTNFVKLSLFTER [P28R F6N] registered an ELISA signal of 446. For the molecule KKLDTFFVKLSLFTFR [P28R E15F], the ELISA signal is 137. KKLDTAFVKLSLFTER [P28R F6A] had an ELISA signal of 575.

As to KKLDTKFVKLSLFTER [P28R F6K], the ELISA signal was determined as 309. KKLDTFFVKLSLFTMR [P28R E15M]: the ELISA signal was found to be 247. With KKLFTFFVKLSLFTER [P28R D4F], the ELISA signal stood at 380. The molecule KKLKTFFVKLSLFTER [P28R D4K] came in with an ELISA signal of 274. In turn, KKLDTDFVKLSLFTER [P28R F6D] showed an ELISA signal of 193. For KKLDTFFVKLSLFTIR [P28R E15I], the ELISA signal was 163.

In the case of KKLDTWFVKLSLFTER [P28R F6W], the ELISA signal stood at 348.

Molecule KKLQTFFVKLSLFTER [P28R D4Q] showed an ELISA signal of 345. In turn, KKLYTFFVKLSLFTER [P28R D4Y] showed an ELISA signal of 422. Take KKLDTFFVKLSLFTNR [P28R E15N]: the ELISA signal is 161. With KKLDTVFVKLSLFTER [P28R F6V], the ELISA signal was 547. Molecule KKLITFFVKLSLFTER [P28R D4I] came in with an ELISA signal of 430. The molecule KKLDTFFVKLSLFTRR [P28R E15R] yielded an ELISA signal of 237. For the molecule KKLRTFFVKLSLFTER [P28R D4R], the ELISA signal is 317. KKLDTFFVKLSLFTWR [P28R E15W] returned an ELISA signal of 226.

Regarding KKLDTRFVKLSLFTER [P28R F6R], the ELISA signal came out at 309.

On to KKLDTQFVKLSLFTER [P28R F6Q], for which the ELISA signal was 410. The same measure, in the same setting: next, KKLDTFFVKLSLFTTR [P28R E15T]: 152; KKLDTFFVKLSLFTLR [P28R E15L]: 246.
